Assay [1] concerns the target α-synuclein (wild type) (UniProt P37840).
The target is the same in assay [2]. This is another data set of the same source.

Chain of HtrA1ΔNTD (residues 156–480) (Q92743 156-480, stated change not applied): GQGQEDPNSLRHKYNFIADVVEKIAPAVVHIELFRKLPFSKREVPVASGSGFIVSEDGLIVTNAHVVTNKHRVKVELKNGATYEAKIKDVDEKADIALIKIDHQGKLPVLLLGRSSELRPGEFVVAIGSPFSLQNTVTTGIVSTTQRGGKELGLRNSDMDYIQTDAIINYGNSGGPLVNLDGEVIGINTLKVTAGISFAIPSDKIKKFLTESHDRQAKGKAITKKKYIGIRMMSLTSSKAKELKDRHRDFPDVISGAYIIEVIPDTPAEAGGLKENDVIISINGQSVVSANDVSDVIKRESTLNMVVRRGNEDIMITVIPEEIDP

In turn, “HtrA1ΔNTD (residues 156–480) (from UniProt Q92743 156-480) (domain or fragment)” displayed a ThT fluorescence of α-syn (25 μM) fibrillized with HtrA1 (5 μM) for 48h, relative to the signal without HtrA1 (% of the ThT signal without HtrA1) in assay [1] of 20. Besides, the sedimentation assay, α-syn (25 μM) with HtrA1 (5 μM), 24–72h: share of α-syn in the insoluble fraction (HtrA1 itself stays soluble with α-syn) (% of α-syn insoluble) in assay [2] was less than 10.

The values are drawn from article PMC10479434.
